Reference: US20210187069A1

T1: wildtype SARM1 (endogenous, in wildtype mouse dorsal root ganglion neurons) (mouse) (UniProt Q6PDS3)
T1 sequence (looked up): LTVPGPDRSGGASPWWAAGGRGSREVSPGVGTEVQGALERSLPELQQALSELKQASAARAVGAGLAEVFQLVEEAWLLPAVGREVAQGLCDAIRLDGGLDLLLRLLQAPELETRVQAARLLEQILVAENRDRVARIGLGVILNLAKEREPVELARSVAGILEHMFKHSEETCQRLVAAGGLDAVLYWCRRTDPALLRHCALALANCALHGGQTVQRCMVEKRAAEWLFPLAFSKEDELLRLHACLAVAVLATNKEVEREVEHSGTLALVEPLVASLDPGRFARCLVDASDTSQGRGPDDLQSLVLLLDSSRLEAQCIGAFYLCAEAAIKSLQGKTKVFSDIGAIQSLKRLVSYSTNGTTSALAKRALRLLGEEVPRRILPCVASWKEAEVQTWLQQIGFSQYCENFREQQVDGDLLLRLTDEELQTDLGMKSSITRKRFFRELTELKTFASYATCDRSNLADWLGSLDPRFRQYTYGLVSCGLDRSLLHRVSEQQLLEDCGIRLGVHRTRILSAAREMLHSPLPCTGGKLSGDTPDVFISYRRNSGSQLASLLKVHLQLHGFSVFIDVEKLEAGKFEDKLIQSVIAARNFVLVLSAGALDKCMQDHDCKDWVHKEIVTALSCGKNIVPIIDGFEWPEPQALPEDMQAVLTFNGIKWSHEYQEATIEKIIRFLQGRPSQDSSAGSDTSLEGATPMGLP


Target: T1, wildtype SARM1 (endogenous, in wildtype mouse dorsal root ganglion neurons) (mouse)
Assay: cell-based or functional assay

Binder	axon degeneration after axotomy [h]	axon degeneration (degeneration index) after axotomy of wildtype DRG neurons [h]	further results
SARM1 K628D (enzyme, not shown: large carriers) LAVPGPDGGGGTGPWWAAGGRGPREVSPGAGTEVQDALERALPELQQALSALKQAGGARAVGAGLAEVFQLVEEAWLLPAVGREVAQGLCDAIRLDGGLDLLLRLLQAPELETRVQAARLLEQILVAENRDRVARIGLGVILNLAKEREPVELARSVAGILEHMFKHSEETCQRLVAAGGLDAVLYWCRRTDPALLRHCALALGNCALHGGQAVQRRMVEKRAAEWLFPLAFSKEDELLRLHACLAVAVLATNKEVEREVERSGTLALVEPLVASLDPGRFARCLVDASDTSQGRGPDDLQRLVPLLDSNRLEAQCIGAFYLCAEAAIKSLQGKTKVFSDIGAIQSLKRLVSYSTNGTKSALAKRALRLLGEEVPRPILPSVPSWKEAEVQTWLQQIGFSKYCESFREQQVDGDLLLRLTEEELQTDLGMKSGITRKRFFRELTELKTFANYSTCDRSNLADWLGSLDPRFRQYTYGLVSCGLDRSLLHRVSEQQLLEDCGIHLGVHRARILTAAREMLHSPLPCTGGKPSGDTPDVFISYRRNSGSQLASLLKVHLQLHGFSVFIDVEKLEAGKFEDKLIQSVMGARNFVLVLSPGALDDCMQDHDCKDWVHKEIVTALSCGKNIVPIIDGFEWPEPQVLPEDMQAVLTFNGIKWSHEYQEATIEKIIRFLQGRSSRDSSAGSDTSLEGAAPMGPTATT	24		
SARM1 C629S (enzyme, not shown: large carriers) LAVPGPDGGGGTGPWWAAGGRGPREVSPGAGTEVQDALERALPELQQALSALKQAGGARAVGAGLAEVFQLVEEAWLLPAVGREVAQGLCDAIRLDGGLDLLLRLLQAPELETRVQAARLLEQILVAENRDRVARIGLGVILNLAKEREPVELARSVAGILEHMFKHSEETCQRLVAAGGLDAVLYWCRRTDPALLRHCALALGNCALHGGQAVQRRMVEKRAAEWLFPLAFSKEDELLRLHACLAVAVLATNKEVEREVERSGTLALVEPLVASLDPGRFARCLVDASDTSQGRGPDDLQRLVPLLDSNRLEAQCIGAFYLCAEAAIKSLQGKTKVFSDIGAIQSLKRLVSYSTNGTKSALAKRALRLLGEEVPRPILPSVPSWKEAEVQTWLQQIGFSKYCESFREQQVDGDLLLRLTEEELQTDLGMKSGITRKRFFRELTELKTFANYSTCDRSNLADWLGSLDPRFRQYTYGLVSCGLDRSLLHRVSEQQLLEDCGIHLGVHRARILTAAREMLHSPLPCTGGKPSGDTPDVFISYRRNSGSQLASLLKVHLQLHGFSVFIDVEKLEAGKFEDKLIQSVMGARNFVLVLSPGALDKSMQDHDCKDWVHKEIVTALSCGKNIVPIIDGFEWPEPQVLPEDMQAVLTFNGIKWSHEYQEATIEKIIRFLQGRSSRDSSAGSDTSLEGAAPMGPTATT	24		
SARM1-E642A (enzyme, not shown: large carriers) LAVPGPDGGGGTGPWWAAGGRGPREVSPGAGTEVQDALERALPELQQALSALKQAGGARAVGAGLAEVFQLVEEAWLLPAVGREVAQGLCDAIRLDGGLDLLLRLLQAPELETRVQAARLLEQILVAENRDRVARIGLGVILNLAKEREPVELARSVAGILEHMFKHSEETCQRLVAAGGLDAVLYWCRRTDPALLRHCALALGNCALHGGQAVQRRMVEKRAAEWLFPLAFSKEDELLRLHACLAVAVLATNKEVEREVERSGTLALVEPLVASLDPGRFARCLVDASDTSQGRGPDDLQRLVPLLDSNRLEAQCIGAFYLCAEAAIKSLQGKTKVFSDIGAIQSLKRLVSYSTNGTKSALAKRALRLLGEEVPRPILPSVPSWKEAEVQTWLQQIGFSKYCESFREQQVDGDLLLRLTEEELQTDLGMKSGITRKRFFRELTELKTFANYSTCDRSNLADWLGSLDPRFRQYTYGLVSCGLDRSLLHRVSEQQLLEDCGIHLGVHRARILTAAREMLHSPLPCTGGKPSGDTPDVFISYRRNSGSQLASLLKVHLQLHGFSVFIDVEKLEAGKFEDKLIQSVMGARNFVLVLSPGALDKCMQDHDCKDWVHKAIVTALSCGKNIVPIIDGFEWPEPQVLPEDMQAVLTFNGIKWSHEYQEATIEKIIRFLQGRSSRDSSAGSDTSLEGAAPMGPTATT			mitochondrial membrane potential (TMRM fluorescence) in severed axons of wildtype DRG neurons: 24 h

Now from value to binder, other results behind:

axon degeneration after axotomy [h]	axon degeneration (degeneration index) after axotomy of wildtype DRG neurons [h]	Binder	further results
	72	SARM1-K193R (enzyme, not shown: large carriers) LAVPGPDGGGGTGPWWAAGGRGPREVSPGAGTEVQDALERALPELQQALSALKQAGGARAVGAGLAEVFQLVEEAWLLPAVGREVAQGLCDAIRLDGGLDLLLRLLQAPELETRVQAARLLEQILVAENRDRVARIGLGVILNLAKEREPVELARSVAGILEHMFRHSEETCQRLVAAGGLDAVLYWCRRTDPALLRHCALALGNCALHGGQAVQRRMVEKRAAEWLFPLAFSKEDELLRLHACLAVAVLATNKEVEREVERSGTLALVEPLVASLDPGRFARCLVDASDTSQGRGPDDLQRLVPLLDSNRLEAQCIGAFYLCAEAAIKSLQGKTKVFSDIGAIQSLKRLVSYSTNGTKSALAKRALRLLGEEVPRPILPSVPSWKEAEVQTWLQQIGFSKYCESFREQQVDGDLLLRLTEEELQTDLGMKSGITRKRFFRELTELKTFANYSTCDRSNLADWLGSLDPRFRQYTYGLVSCGLDRSLLHRVSEQQLLEDCGIHLGVHRARILTAAREMLHSPLPCTGGKPSGDTPDVFISYRRNSGSQLASLLKVHLQLHGFSVFIDVEKLEAGKFEDKLIQSVMGARNFVLVLSPGALDKCMQDHDCKDWVHKEIVTALSCGKNIVPIIDGFEWPEPQVLPEDMQAVLTFNGIKWSHEYQEATIEKIIRFLQGRSSRDSSAGSDTSLEGAAPMGPTATT	
	72	SARM1-H685A (enzyme, not shown: large carriers) LAVPGPDGGGGTGPWWAAGGRGPREVSPGAGTEVQDALERALPELQQALSALKQAGGARAVGAGLAEVFQLVEEAWLLPAVGREVAQGLCDAIRLDGGLDLLLRLLQAPELETRVQAARLLEQILVAENRDRVARIGLGVILNLAKEREPVELARSVAGILEHMFKHSEETCQRLVAAGGLDAVLYWCRRTDPALLRHCALALGNCALHGGQAVQRRMVEKRAAEWLFPLAFSKEDELLRLHACLAVAVLATNKEVEREVERSGTLALVEPLVASLDPGRFARCLVDASDTSQGRGPDDLQRLVPLLDSNRLEAQCIGAFYLCAEAAIKSLQGKTKVFSDIGAIQSLKRLVSYSTNGTKSALAKRALRLLGEEVPRPILPSVPSWKEAEVQTWLQQIGFSKYCESFREQQVDGDLLLRLTEEELQTDLGMKSGITRKRFFRELTELKTFANYSTCDRSNLADWLGSLDPRFRQYTYGLVSCGLDRSLLHRVSEQQLLEDCGIHLGVHRARILTAAREMLHSPLPCTGGKPSGDTPDVFISYRRNSGSQLASLLKVHLQLHGFSVFIDVEKLEAGKFEDKLIQSVMGARNFVLVLSPGALDKCMQDHDCKDWVHKEIVTALSCGKNIVPIIDGFEWPEPQVLPEDMQAVLTFNGIKWSAEYQEATIEKIIRFLQGRSSRDSSAGSDTSLEGAAPMGPTATT	
	72	SARM1-H685Y (enzyme, not shown: large carriers) LAVPGPDGGGGTGPWWAAGGRGPREVSPGAGTEVQDALERALPELQQALSALKQAGGARAVGAGLAEVFQLVEEAWLLPAVGREVAQGLCDAIRLDGGLDLLLRLLQAPELETRVQAARLLEQILVAENRDRVARIGLGVILNLAKEREPVELARSVAGILEHMFKHSEETCQRLVAAGGLDAVLYWCRRTDPALLRHCALALGNCALHGGQAVQRRMVEKRAAEWLFPLAFSKEDELLRLHACLAVAVLATNKEVEREVERSGTLALVEPLVASLDPGRFARCLVDASDTSQGRGPDDLQRLVPLLDSNRLEAQCIGAFYLCAEAAIKSLQGKTKVFSDIGAIQSLKRLVSYSTNGTKSALAKRALRLLGEEVPRPILPSVPSWKEAEVQTWLQQIGFSKYCESFREQQVDGDLLLRLTEEELQTDLGMKSGITRKRFFRELTELKTFANYSTCDRSNLADWLGSLDPRFRQYTYGLVSCGLDRSLLHRVSEQQLLEDCGIHLGVHRARILTAAREMLHSPLPCTGGKPSGDTPDVFISYRRNSGSQLASLLKVHLQLHGFSVFIDVEKLEAGKFEDKLIQSVMGARNFVLVLSPGALDKCMQDHDCKDWVHKEIVTALSCGKNIVPIIDGFEWPEPQVLPEDMQAVLTFNGIKWSYEYQEATIEKIIRFLQGRSSRDSSAGSDTSLEGAAPMGPTATT	
